“Also recorded” adds a separate entry of the source. Read-outs that look alike come from different tables or passages of the source.
Assays:
free DNA = test: Radial diffusion assay (RDA) of nuclease activity against free DNA in conditioned media; type: biochemical; conditions: for RDA nuclease activity of conditioned media (in words): media conditioned by transfected HeLa cells
Procedure: (§1) Transfection Reagents and Resistance Assays. Lipofection of respective pcDNA3.1-D1 or -D3 ([…] purified with Promega Wizard Plus DNA system) was performed independently into 1-2 million HeLa cells, which produce a low background of secreted nuclease activity, when grown in DMEM with 10% FCS (LifeTech) in 6 well culture plates (Becton-Dickinson). […] Media of the transfected cells were conditioned for 36-48 hours and served as source of the respective enzymes. Nuclease activity in conditioned supernatant was measured by RDAs, zymograms and by testing activity against supercoiled pBluescript (Stratagene).
Nuclease Assays. Nuclease activity against “naked” or free DNA in CM was quantified by densitometry of RDAs. For assays of media by murine cells, RDAs were performed using conditioned media, after 36 hour incubation of equal numbers of target cell population. Each conditioned media was sampled in triplicate. RDAs for all four mice were performed on a single dish. For RDAs, 2-5 ul of conditioned supernatant was dotted on 100 mm dishes containing 2% agarose, 250 ug/ml DNA, 0.001% EtBr, 0.5% filtered milk, 10 mM Ca^+2/MgCl2; and 12.5 ug/ml kanamycin. Multiple observations were generated for every sample obtained. After 24 hours of 37° incubation, plates are photographed under UV transillumination; and scanned photos were analyzed with NIH image. For RDAs, the activity was quantified as the product of mean density and area (traced on image) of zones of clearing. For observations of serum/urine, 2-5 ul of serum were dotted on agarose plates.
(§2) Zymograms are in-gel renaturation assays performed by SDS-PAGE through a gel impregnated with 200 µg/ml DNA and ethidium bromide, eluting away SDS with repeated washes in 25 mM Tris-HCl pH 7.5, then incubating for 12-16 hours at 37° C. in 25 mM Tris-HCl pH 7.5 with 10 mM Ca^+2/Mg^+2 buffer. Activity is measured as dark “bands” of DNA digestion (Rosenthal et al., (1977) Anal. Biochem. 80, 76-90) and quantified using scanned images using NIH Image. Photographed RDA results were scanned 600 dpi Tiff images, and activity was measured as pixel area times density of traced zones of clearing (n=3 for each zone). Student's T-test was used to compare paired results. Nuclease activity ratios were obtained by comparing intra-plate results.

HeLa cells = test: BT assay: liposomal N1-eGFP transfection of HeLa cells in DNASE-conditioned media, GFP immunoblot; type: cell-based; conditions: for BT activity / GFP expression or transfection efficiency in cells exposed to undiluted conditioned media: FuGENE-6, anti-GFP immunoblot
Procedure: In the main assay, an eukaryotic marker such as green fluorescent protein (GFP) expression plasmid complexed with a lipid reagent is transfected into HeLa cells incubated in control media, D1L3-conditioned media, or D1-conditioned media (FIG. 4). The assay is not limited to the use of GFP as a marker, but could use any of many expressed biomarkers encoded by nucleotides that can be assayed either immunochemistry, fluorescent detection, or enzymatic detectection, and these include but are not circumscribed to luciferase, chloramphenicol acetyl-transferase, antibiotic or chemical resistance genes, Beta-galactosidase, FLAG-, myc-hemaglutinnin-, or other epitope tagged molecules, as well as other markers of gene or nucleotide transduction. The endpoint of the assay is the detection of a synthesized protein, but could easily have been the detection of a transcribed gene product, since the assay ultimately measures the ability of D1L3 added the media/milieu overlaying the cells to block the ultimate association of an expressible plasmid with the transcriptional machinery.
as §1
To test for the ability of the nucleases to block transfection, the media in individual wells of naive HeLa cells were replaced with conditioned media, and cells transfected with […] of N1-eGFP plasmid (Clontech) using various transfection reagents (FIG. 11) and their respective protocols. GFP expression by immunoblot directly correlated with transfection efficiency in present experiments. Thus, transfection efficiency was compared by densitometric analysis of GFP immunoblots.
GFP expression was also examined by fluorescent microscopy using a FITC filter. For microscopy, cells were fixed for 5 minutes in 4% paraformaldehyde dissolved into 1% PBS.
Antibody Reagents and Immunoblotting. After 24-36 hours, cells transfected with N1-eGFP were lysed in SDS-buffer and immunoblotted for expression with anti-GFP at 1:5000 dilution (Clontech). To confirm nearly equal protein loading per lane, anti-β-actin monoclonal antibody at 1:7,000 dilution (Sigma) were prepared. For immunoblots, […] protein was eletrophoretically separated by 12% SDS-PAGE gel, followed by electrotransfer to Immobilon-P membranes (Millipore) for expression studies. Immunoblotting was performed using ECL detection (Amersham).
Transfection efficiency was compared, wherever possible, by pixel densitometry of the scanned images using Scion Image 4.02 software.

DNA = test: DNA-SDS zymogram of nuclease activity; type: biochemical
Procedure: as §2
Prokaryotic Expression and GST Purification. Human D1L3-GST expression was performed by growing transformed BL21 Cells (Stratagene) at log phase were induced in 50 mg/ml IPTG for 5-7 hours at 32°. Bacterial pellets were lysed in 1×SDS-PAGE buffer and loaded on SDS-12% PAGE.

B1: D3DCT: Murine D1L3 truncated by a stop codon at Ser-289, lacking the basic C-terminus (289-310) (protein)
chain: LRLCSFNVRSFGASKKENHEAMDIIVKIIKRCDLILLMEIKDSSNNICPMLMEKLNGNSRRSTTYNYVISSRLGRNTYKEQYAFVYKEKLVSVKTKYHYHDYQDGDTDVFSREPFVVWFHSPFTAVKDFVIVPLHTTPETSVKEIDELVDVYTDVRSQWKTENFIFMGDFNAGCSYVPKKAWQNIRLRTDPKFVWLIGDQEDTTVKKSTSCAYDRIVLCGQEIVNSVVPRSSGVFDFQKAYDLSEEEALDVSDHFPVEFKLQS
Question: Which results are given for B1?
Answer: RDA nuclease activity of conditioned media (in words) (free DNA): greater RDA activity than D3; RDA nuclease activity of conditioned media (in words) (free DNA; listed as D3 pCT): slightly increased nuclease activity; BT activity / GFP expression or transfection efficiency in cells exposed to undiluted conditioned media (HeLa cells): did not differ significantly from controls; also recorded: no significant decrease; BT activity / GFP expression or transfection efficiency in cells exposed to undiluted conditioned media (HeLa cells; listed as D3 ρCT): unaffected

B2: Y261 C: Human DNASE1L3 with Tyr>Cys at aa 261, HA-tagged, expressed in HeLa (protein, UniProt Q13609 21-305, looked up, variant Y261C)
Deoxyribonuclease gamma: MRICSFNVRSFGESKQEDKNAMDVIVKVIKRCDIILVMEIKDSNNRICPILMEKLNRNSRRGITYNYVISSRLGRNTYKEQYAFLYKEKLVSVKRSYHYHDYQDGDADVFSREPFVVWFQSPHTAVKDFVIIPLHTTPETSVKEIDELVEVYTDVKHRWKAENFIFMGDFNAGCSYVPKKAWKNIRLRTDPRFVWLIGDQEDTTVKKSTNCAYDRIVLRGQEIVSSVVPKSNSVFDFQKACKLTEEEALDVSDHFPVEFKLQSSRAFTNSKKSVTLRKKTKSKRS
modifications: HA tag
notes: Human DNASE1L3 with Tyr>Cys at aa 261, HA-tagged, expressed in HeLa
Question: B2 was tested. Which “RDA nuclease activity of conditioned media (in words)” value (from here on “RDA nuclease activity”) (free DNA) did it give?
Answer: The value was “complete loss of function”.

Question: And the “RDA nuclease activity” value (free DNA; listed as 261 C)?
Answer: Its value is “only faint, if any, activity”.

Question: What about the “BT activity / GFP expression or transfection efficiency in cells exposed to undiluted conditioned media” value (HeLa cells) of the same molecule?
Answer: The value was “complete loss of function”.

Question: What about the “BT activity / GFP expression or transfection efficiency in cells exposed to undiluted conditioned media” value (HeLa cells; listed as 261 C) of the same molecule?
Answer: The value was “absence of barrier activity”.

Question: And the “nuclease activity by zymogram (in words)” value (DNA)?
Answer: Its value is “complete loss of function”.

Question: And the “nuclease activity by zymogram (in words)” value (DNA; listed as 261 C)?
Answer: Its value is “no activity”.

B3: N191K: Human D1L3 with N191K mutation, expressed as GST fusion in E. coli (protein)
chain: MRICSFNVRSFGESKQEDKNAMDVIVKVIKRCDIILVMEIKDSNNRICPILMEKLNRNSRRGITYNYVISSRLGRNTYKEQYAFLYKEKLVSVKRSYHYHDYQDGDADVFSREPFVVWFQSPHTAVKDFVIIPLHTTPETSVKEIDELVEVYTDVKHRWKAENFIFMGDFKAGCSYVPKKAWKNIRLRTDPRFVWLIGDQEDTTVKKSTNCAYDRIVLRGQEIVSSVVPKSNSVFDFQKAYKLTEEEALDVSDHFPVEFKLQSSRAFTNSKKSVTLRKKTKSKRS
Question: B3 was tested. Which “nuclease activity by zymogram (in words)” value (DNA) did it give?
Answer: The value was “no detectable nuclease activity”.

B4: 89I: Murine D1L3 variant of NZ and MRL strains, isoleucine for threonine at residue 89 (protein)
chain: LRLCSFNVRSFGASKKENHEAMDIIVKIIKRCDLILLMEIKDSSNNICPMLMEKLNGNSRRSTIYNYVISSRLGRNTYKEQYAFVYKEKLVSVKTKYHYHDYQDGDTDVFSREPFVVWFHSPFTAVKDFVIVPLHTTPETSVKEIDELVDVYTDVRSQWKTENFIFMGDFNAGCSYVPKKAWQNIRLRTDPKFVWLIGDQEDTTVKKSTSCAYDRIVLCGQEIVNSVVPRSSGVFDFQKAYDLSEEEALDVSDHFPVEFKLQSSRAFTNNRKSVSLKKRKKGNRS
Question: How did the “RDA-nuclease activity relative to the 89T enzyme” value (free DNA; in vitro) turn out when B4 was run?
Answer: The value was “about half”.

Question: What about the “defect in BT activity” value (HeLa cells; normalized to immunoblotted D3 protein levels, versus 89T, n=6) of the same molecule?
Answer: The value was about 8 fold.

Question: What about the “GFP transfection in ten-fold diluted conditioned media” value (HeLa cells; ten-fold (five and ten fold) dilution of conditioned media) of the same molecule?
Answer: Its value is “liposomal gene transfection is possible; also recorded: shows transfection”.

Question: What about the “BT activity / GFP expression or transfection efficiency in cells exposed to undiluted conditioned media” value (HeLa cells) of the same molecule?
Answer: Its value is “saturated BT activity”.

Question: And the “zymogram nuclease activity relative to 89T-transfected cells” value (DNA; HeLa-expressed, normalized to immunoblotted D1L3 levels, n=16)?
Answer: The value was 44%.

Question: And the “decreased zymogram activity relative to protein levels” value (DNA; versus 89T, GST fusions and HeLa-expressed enzymes)?
Answer: Its value is about 50%.

B5: N196K-D3: Murine D1L3 with conserved asparagine 196 changed to lysine; inactive nuclease (protein)
chain: LRLCSFNVRSFGASKKENHEAMDIIVKIIKRCDLILLMEIKDSSNNICPMLMEKLNGNSRRSTTYNYVISSRLGRNTYKEQYAFVYKEKLVSVKTKYHYHDYQDGDTDVFSREPFVVWFHSPFTAVKDFVIVPLHTTPETSVKEIDELVDVYTDVRSQWKTENFIFMGDFKAGCSYVPKKAWQNIRLRTDPKFVWLIGDQEDTTVKKSTSCAYDRIVLCGQEIVNSVVPRSSGVFDFQKAYDLSEEEALDVSDHFPVEFKLQSSRAFTNNRKSVSLKKRKKGNRS
Question: Which “RDA nuclease activity” value (free DNA) does the source give for B5 here?
Answer: The value was “Nearly no clearing; also recorded: negligible background RDA activity; also recorded: no nuclease activity above background”.

Question: And the “BT activity / GFP expression or transfection efficiency in cells exposed to undiluted conditioned media” value (HeLa cells)?
Answer: The value was “did not differ significantly from controls; also recorded: incapable of providing a barrier to transfection”.

Question: What about the “nuclease activity by zymogram (in words)” value (DNA) of the same molecule?
Answer: Its value is “no nuclease activity above background”.
